Literature values in paper PMC4696766.
Where two headings read alike, the source gives them in different places.

Key:
[1] = target: Histone H3 (Homo sapiens) (UniProt P68431)
[2] = target: Histone H3 (Arabidopsis thaliana) (UniProt P59226)
[3] = target: histone H3 H3K9me2 peptide (UniProt P61830)
[4] = target: histone H3 H3K9me3 peptide (UniProt P61830)
[5] = target: Histone H3 (Drosophila melanogaster) (UniProt P02299)
[6] = target: Histone H3 (Homo sapiens) (UniProt P68431); remark: listed apart in the source
[7] = target: Histone H3 (Homo sapiens) (UniProt P68431); remark: listed apart in the source
[8] = target: Histone H3 (Homo sapiens) (UniProt P68431); remark: listed apart in the source
histone H3 1-10 = histone H3 1-10 (UniProt P61830)
[9] = target: Histone H3 (Homo sapiens) (UniProt P68431); remark: listed apart in the source
[10] = target: Histone H3 (Homo sapiens) (UniProt P68431); remark: listed apart in the source
[11] = target: histone H4 H4K20me2 peptide (UniProt P62805)
[12] = target: histone H4 H4K20me3 peptide (UniProt P62805)
[13] = target: histone H3 H3K4me3 peptide (UniProt P61830)
[14] = target: histone H3 H3K9me3 peptide (UniProt P61830); remark: listed apart in the source
[15] = target: Histone H3 (Arabidopsis thaliana) (UniProt P59226); remark: listed apart in the source
[16] = target: histone H3 H3K4me3 peptide (UniProt P61830); remark: listed apart in the source
[17] = target: Histone H3 (Homo sapiens) (UniProt P68431); remark: listed apart in the source
PIWI (Homo sapiens) = PIWI (Homo sapiens) (UniProt Q96J94)
[18] = target: Histone H3 (Homo sapiens) (UniProt P68431); remark: listed apart in the source
[19] = target: Histone H3 (Homo sapiens) (UniProt P68431); remark: listed apart in the source
[20] = target: histone H3 H3K9me2 peptide (UniProt P61830); remark: listed apart in the source
[21] = target: histone H3 H3K4me2 peptide (UniProt P61830)
[22] = target: histone H3 H3K4me3 peptide (UniProt P61830); remark: listed apart in the source
[23] = target: Histone H4 (Homo sapiens) (UniProt P62805)
[24] = target: Histone H4 (Homo sapiens) (UniProt P62805); test: NMR
γH2A.X (Homo sapiens) = γH2A.X (Homo sapiens) (UniProt P16104)
di-γH2A.X (Homo sapiens) = di-γH2A.X (Homo sapiens) (UniProt P16104)

HP1 chromodomain, sequence (P05205 24-82): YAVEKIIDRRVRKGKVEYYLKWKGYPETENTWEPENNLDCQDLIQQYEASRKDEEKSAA
14-3-3ζ, sequence (P63104 whole entry): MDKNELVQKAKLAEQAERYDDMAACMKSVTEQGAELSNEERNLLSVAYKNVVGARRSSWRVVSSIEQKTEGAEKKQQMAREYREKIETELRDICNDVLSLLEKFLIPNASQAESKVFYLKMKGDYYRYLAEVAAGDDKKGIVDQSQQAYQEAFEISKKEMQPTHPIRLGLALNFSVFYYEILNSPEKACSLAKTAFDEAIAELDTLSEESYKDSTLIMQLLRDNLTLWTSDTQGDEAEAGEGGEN
G9a ankyrin repeats, sequence (Q96KQ7 649-879): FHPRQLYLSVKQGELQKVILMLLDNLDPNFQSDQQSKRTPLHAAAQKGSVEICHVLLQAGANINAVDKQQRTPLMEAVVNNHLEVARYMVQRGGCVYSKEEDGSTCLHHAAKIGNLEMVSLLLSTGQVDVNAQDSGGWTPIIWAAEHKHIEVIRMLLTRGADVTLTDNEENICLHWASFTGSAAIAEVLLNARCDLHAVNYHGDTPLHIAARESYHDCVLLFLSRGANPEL
JMJD2A tandem Tudor, sequence (O75164 897-1011): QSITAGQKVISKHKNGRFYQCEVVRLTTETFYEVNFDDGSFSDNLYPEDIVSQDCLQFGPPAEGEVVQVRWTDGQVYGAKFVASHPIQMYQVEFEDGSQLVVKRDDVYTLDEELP
UHRF1 PHD finger, sequence (Q96T88 310-366): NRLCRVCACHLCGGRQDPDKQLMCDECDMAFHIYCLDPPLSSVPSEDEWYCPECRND
MCPH1 tandem BRCT domains, sequence (Q8NEM0 640-833): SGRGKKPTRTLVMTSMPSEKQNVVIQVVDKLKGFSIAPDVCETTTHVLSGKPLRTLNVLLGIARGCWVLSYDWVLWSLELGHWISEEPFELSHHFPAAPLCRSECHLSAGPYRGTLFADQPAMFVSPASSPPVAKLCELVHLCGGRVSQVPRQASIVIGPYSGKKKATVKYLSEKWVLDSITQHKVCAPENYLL
CHD1 tandem chromodomains, sequence (O14646 272-452): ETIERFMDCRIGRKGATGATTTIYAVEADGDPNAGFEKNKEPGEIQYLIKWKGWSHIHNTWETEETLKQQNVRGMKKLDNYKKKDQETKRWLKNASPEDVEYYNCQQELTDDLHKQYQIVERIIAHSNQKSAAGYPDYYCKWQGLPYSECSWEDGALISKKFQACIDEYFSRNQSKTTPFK
BHC80 PHD finger, sequence (Q96BD5 whole entry): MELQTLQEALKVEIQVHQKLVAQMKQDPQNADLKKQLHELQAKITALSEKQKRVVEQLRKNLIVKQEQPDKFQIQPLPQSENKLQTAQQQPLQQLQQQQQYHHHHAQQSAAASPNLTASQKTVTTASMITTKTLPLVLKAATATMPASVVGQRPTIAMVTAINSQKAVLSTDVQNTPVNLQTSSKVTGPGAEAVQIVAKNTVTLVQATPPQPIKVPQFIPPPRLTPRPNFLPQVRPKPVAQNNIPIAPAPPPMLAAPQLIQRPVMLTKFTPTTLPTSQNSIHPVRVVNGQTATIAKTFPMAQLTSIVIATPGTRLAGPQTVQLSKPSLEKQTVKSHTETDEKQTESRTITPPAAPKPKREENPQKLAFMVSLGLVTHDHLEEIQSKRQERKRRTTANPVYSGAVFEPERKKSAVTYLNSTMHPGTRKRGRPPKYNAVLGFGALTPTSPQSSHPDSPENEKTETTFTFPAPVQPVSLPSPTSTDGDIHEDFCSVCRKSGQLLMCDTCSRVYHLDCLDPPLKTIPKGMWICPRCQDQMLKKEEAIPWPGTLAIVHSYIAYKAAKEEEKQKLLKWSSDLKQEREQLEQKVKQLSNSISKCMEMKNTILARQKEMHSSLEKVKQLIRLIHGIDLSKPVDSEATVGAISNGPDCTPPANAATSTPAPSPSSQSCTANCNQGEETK
P/CAF bromodomain, sequence (Q92831 720-830): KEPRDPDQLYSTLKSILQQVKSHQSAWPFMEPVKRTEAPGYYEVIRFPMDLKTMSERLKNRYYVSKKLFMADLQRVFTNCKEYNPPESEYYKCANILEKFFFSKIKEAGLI
DPF3 tandem PHD fingers, sequence (Q92784 259-366): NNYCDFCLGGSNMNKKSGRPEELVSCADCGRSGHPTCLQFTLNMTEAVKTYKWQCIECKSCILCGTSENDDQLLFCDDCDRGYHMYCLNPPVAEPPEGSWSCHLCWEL
SHH1 tandem Tudor domains, sequence (Q9XI47 138-244): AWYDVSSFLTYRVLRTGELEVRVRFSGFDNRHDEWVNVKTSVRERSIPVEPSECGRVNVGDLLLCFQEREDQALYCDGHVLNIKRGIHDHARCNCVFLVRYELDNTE
SHH1 tandem Tudor, sequence (Q9XI47 138-244): as above
SND1 extended Tudor domain, sequence (Q7KZF4 650-910): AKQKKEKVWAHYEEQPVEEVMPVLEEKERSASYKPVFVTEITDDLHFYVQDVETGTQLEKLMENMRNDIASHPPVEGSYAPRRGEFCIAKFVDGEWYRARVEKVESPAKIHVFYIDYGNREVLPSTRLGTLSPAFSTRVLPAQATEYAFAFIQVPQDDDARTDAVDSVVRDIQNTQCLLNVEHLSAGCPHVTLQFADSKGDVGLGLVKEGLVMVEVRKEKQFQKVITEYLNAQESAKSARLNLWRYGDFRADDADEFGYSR
UHRF1 tandem Tudor domain, sequence (Q96T88 133-283): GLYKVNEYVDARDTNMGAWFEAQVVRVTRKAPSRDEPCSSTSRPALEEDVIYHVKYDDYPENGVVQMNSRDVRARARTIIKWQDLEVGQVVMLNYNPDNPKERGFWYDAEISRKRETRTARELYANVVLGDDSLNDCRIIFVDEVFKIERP
53BP1 tandem Tudor, sequence (Q12888 1484-1603): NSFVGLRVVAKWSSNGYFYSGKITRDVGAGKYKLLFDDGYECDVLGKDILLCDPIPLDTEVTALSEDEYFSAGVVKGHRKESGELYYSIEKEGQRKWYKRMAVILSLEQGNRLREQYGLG
53BP1 tandem Tudor domains, sequence (Q12888 1484-1603): as above
UHRF1 tandem Tudor-PHD cassette, sequence (Q96T88 133-366): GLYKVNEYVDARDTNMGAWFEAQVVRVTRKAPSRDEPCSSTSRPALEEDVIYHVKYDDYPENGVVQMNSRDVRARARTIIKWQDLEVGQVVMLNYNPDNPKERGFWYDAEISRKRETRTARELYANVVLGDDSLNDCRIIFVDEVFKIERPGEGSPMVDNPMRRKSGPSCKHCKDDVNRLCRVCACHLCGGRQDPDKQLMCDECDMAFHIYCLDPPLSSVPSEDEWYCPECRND

## UHRF1 tandem Tudor-PHD cassette (from UniProt Q96T88)
[1]
  Kd: 0.37 µM

## G9a ankyrin repeats (from UniProt Q96KQ7)
[2]
  Kd: 6 µM
[3]
  Kd: 6 µM

## HP1 chromodomain (from UniProt P05205)
[4]
  Kd: 2.5 µM
[5]
  Kd: 2.5 µM

## DPF3 tandem PHD fingers (from UniProt Q92784)
[6]
  Kd: 0.5 µM

## UHRF1 tandem Tudor domain (from UniProt Q96T88)
[7]
  Kd: 1.75 µM

## BHC80 PHD finger (from UniProt Q96BD5)
[8]
  Kd: 30 µM
Histone H3 1-10
  Kd: 30 µM

## UHRF1 PHD finger (from UniProt Q96T88)
[9]
  Kd: 2.1 µM
[10]
  Kd: 1.47 µM

## 53BP1 tandem Tudor (from UniProt Q12888)
[11]
  Kd: 19.7 µM

## JMJD2A tandem Tudor (from UniProt O75164)
[12]
  Kd: 0.4 µM
[13]
  Kd: 0.5 µM

## ATRX ADD (from UniProt P46100)
[14]
  Kd: 0.5 µM

## SHH1 tandem Tudor domains (from UniProt Q9XI47)
[15]
  Kd: 1.9 µM

## CHD1 tandem chromodomains (from UniProt O14646)
[16]
  Kd: 5 µM
[17]
  Kd: 5 µM

## SND1 extended Tudor domain (from UniProt Q7KZF4)
PIWI (Homo sapiens)
  Kd: 10 µM

## 14-3-3ζ (from UniProt P63104)
[18]
  Kd: 78 µM
[19]
  Kd: 23 µM

## SHH1 tandem Tudor (from UniProt Q9XI47)
[20]
  Kd: 1.9 µM

## BPTF PHD finger (from UniProt Q12830)
[21]
  Kd: 5 µM
[22]
  Kd: 2.7 µM

## 53BP1 tandem Tudor domains (from UniProt Q12888)
[23]
  Kd: 19.7 µM

## P/CAF bromodomain (from UniProt Q92831)
[24]
  Kd: 346 µM

## MCPH1 tandem BRCT domains (from UniProt Q8NEM0)
γH2A.X (Homo sapiens)
  Kd: 0.7 µM
di-γH2A.X (Homo sapiens)
  Kd: 4.4 µM
